Laboratory results: article PMC10629557

Assays:
Mcm4 = Mcm4 (UniProt P30665); experiment: CoSMoS: labelled Mcm2-7 arrival at ORC-Cdc6-bound DNA; conditions: reference: wild-type ORC, no CDK
[1] = biological target: ORC^6C-DY549, wild type, without CDK treatment (S. cerevisiae) (UniProt P54784); experiment: FRET or BRET; single-molecule FRET on surface-tethered ARS1 DNA between ORC^6C-DY549 (donor on Orc6 C-terminus) and Mcm2-7^3N-DY650 (acceptor on Mcm3 N terminus), with Cdc6 and Cdt1; MO complex (ORC on the N-terminal face of Mcm2-7) scored if E_FRET > 0.5 for two consecutive frames; low E_FRET in the OCCM
[2] = biological target: phosphorylated origin recognition complex (ORC treated with Clb5-Cdk1 and ATP) (S. cerevisiae) (UniProt P54784); experiment: colocalization single-molecule spectroscopy (CoSMoS); surface-tethered ARS1 DNA^AF488; 2.5 nM ORC, 10 nM Cdc6, 2.5 nM labeled Mcm2-7-Cdt1, ATP; time to the first Mcm2-7 association with each DNA, taken by the paper as OCCM formation; apparent first-order association rate, background binding at non-DNA sites fitted; conditions: remark: other sources report otherwise
[3] = biological target: origin recognition complex (ORC), wild type, unphosphorylated (S. cerevisiae) (UniProt P54784); experiment: as above; conditions: remark: other sources report otherwise

Orc6 (from UniProt P38826) wild-type ORC treated with Clb5-Cdk1 and ATP
other: apparent association rate ka (Mcm4): weaker; reference 0.0047 ± 0.0003

Mcm2-7^3N-DY650 (Mcm2-7 complex with an acceptor fluorophore at the N terminus of Mcm3) (from UniProt P29469 1-868; P24279 1-971; P30665 1-933; P29496 1-775; P53091 1-1017; P38132 1-845)
percent of first Mcm2-7 landings with the high-E FRET state (MO complex formation) [1]: 21%

Cdt1-Mcm2-7^4SNAP-JF646 (Mcm2-7-Cdt1 complex, Mcm2-7 fluorescently labeled at the N-terminus of Mcm4), P29469 1-868; P24279 1-971; P30665 1-933; P29496 1-775; P53091 1-1017; P38132 1-845; P47112 1-604
apparent first-order association rate ka of first Mcm2-7-Cdt1 recruitment (OCCM formation) [2]: 0.002 s⁻¹
apparent first-order association rate ka of first Mcm2-7-Cdt1 recruitment (OCCM formation) [3]: 0.0047 s⁻¹
